Reference: publication PMC12784932, “Keratin 15 promotes a progenitor cell state in basal keratinocytes of skin epidermis” (The Journal of Cell Biology, 2026)

Target: T1, EGFP-K14 WT (human keratin 14) (human, UniProt P02533 1-472)
T1 construct: keratin 14 (K14), human; codon-optimized KRT14 cDNA synthesized by Twist Biosciences; Co-expressed with untagged human K5, its type II copolymerization partner; also called WT K14; source: HeLa, transfected (nucleofection) together with untagged K5, in lysate (detergent-soluble pool)
T1 sequence (looked up): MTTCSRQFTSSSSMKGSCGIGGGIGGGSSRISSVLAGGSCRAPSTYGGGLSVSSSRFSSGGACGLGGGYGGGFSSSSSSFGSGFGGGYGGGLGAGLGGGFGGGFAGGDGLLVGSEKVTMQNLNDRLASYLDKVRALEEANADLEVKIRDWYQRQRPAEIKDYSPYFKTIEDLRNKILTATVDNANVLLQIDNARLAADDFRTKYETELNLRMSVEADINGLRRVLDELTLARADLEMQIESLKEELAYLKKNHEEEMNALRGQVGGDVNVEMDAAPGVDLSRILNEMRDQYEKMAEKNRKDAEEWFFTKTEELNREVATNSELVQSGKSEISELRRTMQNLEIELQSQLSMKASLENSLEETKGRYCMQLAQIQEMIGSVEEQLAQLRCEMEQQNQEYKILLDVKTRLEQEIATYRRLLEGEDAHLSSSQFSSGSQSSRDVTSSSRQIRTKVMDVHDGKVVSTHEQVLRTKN
Test: co-IP; GFP-Trap Magnetic Agarose (25 μl beads) on 600 μg lysate of HeLa cells cotransfected with untagged K5 and the EGFP-tagged keratin; lysis in 10 mM Tris/Cl pH 7.5, 150 mM NaCl, 0.5 mM EDTA, 0.5% Nonidet P-40 Substitute (detergent-soluble pool); 4°C, 1 h; western blot for endogenous 14-3-3σ; 14-3-3σ signal normalized to GFP
Details: partners not purified

B1: 14-3-3σ (stratifin) (natural protein, human (endogenous in HeLa), UniProt P31947 1-248, looked up)
chain: MERASLIQKAKLAEQAERYEDMAAFMKGAVEKGEELSCEERNLLSVAYKNVVGGQRAAWRVLSSIEQKSNEEGSEEKGPEVREYREKVETELQGVCDTVLGLLDSHLIKEAGDAESRVFYLKMKGDYYRYLAEVATGDDKKRIIDSARSAYQEAMDISKKEMPPTNPIRLGLALNFSVFHYEIANSPEEAISLAKTTFDEAMADLHTLSEDSYKDSTLIMQLLRDNLTLWTADNAGEEGGEAPQEPQS
notes: 14-3-3σ / stratifin, endogenous in HeLa cells; also called stratifin/14-3-3σ; endogenous 14-3-3σ; source: endogenous, HeLa lysate; endogenous, fixed HeLa cells
  fold 14-3-3σ in the immunoprecipitate (normalized to GFP) against the EGFP-K15 WT immunoprecipitate: > 2 fold
